According to patent US20230212549A1 (3B PHARMACEUTICALS, published 2023):
“And” between values parts separate entries of the source, which are not always exact repeats. Equal values may be shown once. Numbered stars: 1 amine (or outer) side, 2 acyl side, 3 side chain; on linkers, the order of the positions; unused ones are H or OH. Bridge positions count the residues as written; N and C are the ends. Square brackets hold non-standard residues; d marks the D form. Primed or numbered codes have the meaning given here. * marks the point of attachment. tMeBn(DOTA-PP) = 1,3,5-trimethylbenzylidene, two thioethers to Cys, third CH2 bound to one N of piperazine whose other N bears DOTA, O=C(O)CN1CCN(CC(=O)O)CCN(CC(=O)N2CCN(Cc3cc(C[*:1])cc(C[*:2])c3)CC2)CCN(CC(=O)O)CC1; tMeBn(DOTA-PP)″ = trimethylbenzylidene (tMeBn) bridge between the two Cys thiols, whose remaining connection point carries a DOTA chelator via a PP linker; Ttds(6) = 1,13-Diamino-4,7,10-trioxatridecan-succinamic acid, O=C(CCC(=O)[*:2])NCCCOCCOCCOCCCN[*:1]; Ttds = 1,13-diamino-4,7,10-trioxatridecan-succinamic acid, O=C(CCC(=O)[*:2])NCCCOCCOCCOCCCN[*:1]; 3MeBn = 3-Methylbenzylidene (m-xylylene thioether bridge from α,α′-dibromo-m-xylene); N4Ac = 6-Carboxy-1,4,8,11-tetraazaundecane, an N4-chelator, NCCNCC(CNCCN)C(=O)*; DOTA = O=C(O)CN1CCN(CC(=O)O)CCN(CC(=O)*)CCN(CC(=O)O)CC1; 1Nal = N[C@@H](Cc1cccc2ccccc12)C(=O)O; mXylylene = c1cc(C[*:1])cc(C[*:2])c1; Pentanesulfonyl = CCCCCS(=O)(=O)*; Hyp = O=C(O)[C@@H]1C[C@@H](O)CN1; Nle = CCCC[C@H](N)C(=O)O; Hexanoyl = CCCCCC(=O)*; Sar = CNCC(=O)O

B1: Pentyl-SO2-[Cys(tMeBn(DOTA-PP))-Pro-Pro-Thr-Gln-Phe-Cys]-Asp-NH2 (peptide)
peptide: Pentanesulfonyl-CPPTQFCD-NH2
modifications: linker 1-7 via tMeBn(DOTA-PP)″
notes: also called 3BP-3692
B2: Hex-[Cys(3MeBn)-Pro-Hyp-Thr-Glu-Phe-Cys]-NH2 (peptide)
peptide: Hexanoyl-CP[Hyp]TEFC-NH2
modifications: linker 1-7 via mXylylene
SMILES: CCCCCC(=O)N[C@H]1CSCc2cccc(c2)CSC[C@@H](C(N)=O)NC(=O)[C@H](Cc2ccccc2)NC(=O)[C@H](CCC(=O)O)NC(=O)[C@H]([C@@H](C)O)NC(=O)[C@@H]2C[C@@H](O)CN2C(=O)[C@@H]2CCCN2C1=O
notes: also called 3BP-3366
B3: Hex-[Cys(tMeBn(DOTA-PP))-Pro-Thr-Pro-Phe-Gln-Cys]-Asp-NH2 (peptide)
peptide: Hexanoyl-CPTPFQCD-NH2
modifications: linker 1-7 via tMeBn(DOTA-PP)
SMILES: CCCCCC(=O)N[C@H]1CSCc2cc(cc(CN3CCN(C(=O)CN4CCN(CC(=O)O)CCN(CC(=O)O)CCN(CC(=O)O)CC4)CC3)c2)CSC[C@@H](C(=O)N[C@@H](CC(=O)O)C(N)=O)NC(=O)[C@H](CCC(N)=O)NC(=O)[C@H](Cc2ccccc2)NC(=O)[C@@H]2CCCN2C(=O)[C@H]([C@@H](C)O)NC(=O)[C@@H]2CCCN2C1=O
B4: Hex-[Cys(tMeBn(DOTA-AET))-Pro-Pro-Thr-Gln-Phe-Cys]-asp-NH2 (peptide)
peptide: CPPTQFCD
modifications: N-term Hex; Cys1/Cys7 thioether-cyclised via tMeBn(DOTA-AET); D-Asp at 8; C-term amide
notes: also called 3BP-3681
B5: Hex-[Cys(tMeBn(DOTA-AET))-Pro-Pro-Thr-Gln-Phe-Cys]-Asp-OH (peptide)
peptide: Hexanoyl-CPPTQFCD-OH
modifications: linker 1-7 via tMeBn(DOTA-AET)
notes: also called 3BP-3665
B6: Hex-[Cys(tMeBn(DOTA-AET))-Nmg-Pro-Thr-Gln-Phe-Cys]-OH (peptide)
peptide: Hexanoyl-C[Sar]PTQFC-OH
modifications: linker 1-7 via tMeBn(DOTA-AET)
notes: also called 3BP-3678
B7: DOTA-Ttds-Nle-[Cys(3MeBn)-Pro-Pro-Thr-Glu-Phe-Cys]-Asp-NH2 (peptide)
peptide: {DOTA}-[Ttds][Nle]CPPTEFCD-NH2
modifications: linker 3-9 via mXylylene
SMILES: CCCC[C@H](NC(=O)CCC(=O)NCCCOCCOCCOCCCNC(=O)CN1CCN(CC(=O)O)CCN(CC(=O)O)CCN(CC(=O)O)CC1)C(=O)N[C@H]1CSCc2cccc(c2)CSC[C@@H](C(=O)N[C@@H](CC(=O)O)C(N)=O)NC(=O)[C@H](Cc2ccccc2)NC(=O)[C@H](CCC(=O)O)NC(=O)[C@H]([C@@H](C)O)NC(=O)[C@@H]2CCCN2C(=O)[C@@H]2CCCN2C1=O
notes: also called 3BP-3320
B8: Hex-[Cys(tMeBn(DOTA-PP))-Thr-Gln-Pro-Phe-Pro-Cys]-Asp-NH2 (peptide)
peptide: Hexanoyl-CTQPFPCD-NH2
modifications: linker 1-7 via tMeBn(DOTA-PP)
SMILES: CCCCCC(=O)N[C@H]1CSCc2cc(cc(CN3CCN(C(=O)CN4CCN(CC(=O)O)CCN(CC(=O)O)CCN(CC(=O)O)CC4)CC3)c2)CSC[C@@H](C(=O)N[C@@H](CC(=O)O)C(N)=O)NC(=O)[C@@H]2CCCN2C(=O)[C@H](Cc2ccccc2)NC(=O)[C@@H]2CCCN2C(=O)[C@H](CCC(N)=O)NC(=O)[C@H]([C@@H](C)O)NC1=O
B9: DOTA-Ttds-Nle-[Cys(3MeBn)-Pro-Pro-Thr-Glu-Phe-Cys]-NH2 (peptide)
peptide: {DOTA}-[Ttds][Nle]CPPTEFC-NH2
modifications: linker 3-9 via mXylylene
SMILES: CCCC[C@H](NC(=O)CCC(=O)NCCCOCCOCCOCCCNC(=O)CN1CCN(CC(=O)O)CCN(CC(=O)O)CCN(CC(=O)O)CC1)C(=O)N[C@H]1CSCc2cccc(c2)CSC[C@@H](C(N)=O)NC(=O)[C@H](Cc2ccccc2)NC(=O)[C@H](CCC(=O)O)NC(=O)[C@H]([C@@H](C)O)NC(=O)[C@@H]2CCCN2C(=O)[C@@H]2CCCN2C1=O
notes: also called 3BP-3319
B10: Hex-[Cys(tMeBn(DOTA-AET))-Pro-Pro-Thr-Gln-Phe-AET] (peptide)
peptide: CPPTQFX
modifications: not fully specified; N-term Hex; X7 = AET; Cys1/AET7 thioether-cyclised via tMeBn(DOTA-AET)
notes: also called 3BP-3654
B11: Hex-[Cys(3MeBn)-Pro-Pro-Thr-Glu-1Ni-Cys]-NH2 (peptide)
peptide: Hexanoyl-CPPTE[1Nal]C-NH2
modifications: linker 1-7 via mXylylene
SMILES: CCCCCC(=O)N[C@H]1CSCc2cccc(c2)CSC[C@@H](C(N)=O)NC(=O)[C@H](Cc2cccc3ccccc23)NC(=O)[C@H](CCC(=O)O)NC(=O)[C@H]([C@@H](C)O)NC(=O)[C@@H]2CCCN2C(=O)[C@@H]2CCCN2C1=O
notes: also called 3BP-3361
B12: N4Ac-Ttds-Glu(AGLU′)-Nle-[Cys-(3MeBn)-Pro-Pro-Thr-Glu-Phe-Cys]-OH (peptide)
peptide: N4Ac-[Ttds(6)]E[Nle]CPPTEFC-OH
modifications: linker 4-10 via 3MeBn; not fully specified (residue 2); printed as N4Ac-Ttds-Glu(AGLU′)-Nle-[Cys-(3MeBn)-Pro-Pro-Thr-Glu-Phe-Cys]-OH

What was measured:
[1] = target: T1, Recombinant human FAP (R&D systems, #3715-SE) (human, UniProt Q12884 26-760); experiment: SPR (Biacore T200), FAP captured on anti-FAP antibody, single cycle kinetics
T1 construct: bought; in SPR captured on immobilized anti-FAP antibody MAB3715; also called rhFAP; human recombinant FAP

[2] = target: T2, fibroblast activation protein (FAP) on FAP-expressing human WI-38 fibroblasts (human, UniProt Q12884 1-760); experiment: competitive FACS, WI-38 cells, vs Cy5 tracer m3; B = pIC50 7.1-8.0
T2 construct: also called human FAP

[3] = target: Recombinant human FAP (R&D systems, #3715-SE) (human, UniProt Q12884 26-760); experiment: cell-based or functional assay
[4] = target: T1, Recombinant human FAP (R&D systems, …); experiment: cell-based or functional assay; remark: listed apart in the source

pKD Category [1] | pIC50 Category (FACS) [2] | pIC50 Category (Activity) [3] | further results | Binder
> 8 pKD | – | – | – | B1
– | 7.1 pIC50 and 8 pIC50 | 7.1 pIC50 and 8 pIC50 | – | B2
– | – | – | pIC50 Category (Activity) [4]: ≤ 6 pIC50 | B3
> 8 pKD | – | – | – | B4
> 8 pKD | – | – | – | B5
> 8 pKD | – | – | – | B6
– | 7.1 pIC50 and 8 pIC50 | > 8 pIC50 | – | B7
– | – | – | pIC50 Category (Activity) [4]: ≤ 6 pIC50 | B8
– | 7.1 pIC50 and 8 pIC50 | 7.1 pIC50 and 8 pIC50 | – | B9
> 8 pKD | – | – | – | B10
– | 7.1 pIC50 and 8 pIC50 | 7.1 pIC50 and 8 pIC50 | – | B11
– | – | – | pIC50 Category (Activity) [4]: ≤ 6 pIC50 | B12
